Measured values taken from patent publication US20220098310A1 (Alexion, published 2022).
Changes are numbered by the printed parent chain.

Columns and labels:
[1] = target: T1, mouse ALK2 expressed on the cell surface of wild-type C2C12 mouse myoblast cells (mouse, UniProt P37172 21-509); assay: flow cytometry on wild-type C2C12 cells, antibody 2.45 to 5,000 ng/mL and 0 ng/mL, detected with AF488 donkey anti-mouse IgG
T1 construct: Endogenous ALK2 of C2C12 cells (ATCC CRL-1772); also called murine ALK2; ALK2 on C2C12 cells
T1 sequence: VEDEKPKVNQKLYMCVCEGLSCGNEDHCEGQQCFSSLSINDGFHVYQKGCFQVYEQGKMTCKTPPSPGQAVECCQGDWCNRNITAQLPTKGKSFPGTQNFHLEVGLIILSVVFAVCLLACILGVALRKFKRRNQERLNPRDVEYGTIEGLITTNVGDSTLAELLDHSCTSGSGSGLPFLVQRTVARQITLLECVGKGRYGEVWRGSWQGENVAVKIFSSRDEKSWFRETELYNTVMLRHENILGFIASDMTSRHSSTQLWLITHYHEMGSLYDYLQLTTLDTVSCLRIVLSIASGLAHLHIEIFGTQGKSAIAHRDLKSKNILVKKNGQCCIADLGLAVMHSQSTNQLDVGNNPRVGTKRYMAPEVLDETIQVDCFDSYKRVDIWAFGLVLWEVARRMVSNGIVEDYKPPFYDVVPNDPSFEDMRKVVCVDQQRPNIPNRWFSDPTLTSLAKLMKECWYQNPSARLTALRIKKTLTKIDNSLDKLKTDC
Description: Anti-ALK2 antibodies were evaluated for binding to ALK2 expressed on the cell surface of mouse myoblast cells (C2C12; ATCC CRL-1772) by flow cytometry. The expression of ALK2 in wild-type C2C12 cells was confirmed by RT-qPCR and by observing the binding of commercially available polyclonal anti-ALK2 antibodies to the cells by flow cytometry (data not shown). […] Loss of ALK2 expression was verified by flow cytometry and genomic sequencing (data not shown).
Wild-type and ALK2 knock-out C2C12 cells were detached from culture flasks using AssayComplete™ Cell Detachment Reagent (DiscoverX) which was used to maintain intact cell membrane morphology. Cells were washed twice with PBS and then re-suspended in PBS. […] Cells were washed once in FACS buffer (5% bovine serum albumin, […] in PBS) re-suspended in blocking buffer (6% BSA in PBS) and incubated on wet ice for 15 minutes. The binding of the anti-ALK2 antibodies to cells was detected with a 1:100 dilution of Alexa Fluor488-conjugated donkey anti-mouse IgG (ThermoFisher catalog number A21202). Cells were then washed twice in FACS buffer, re-suspended in FACS buffer and the binding of anti-ALK2 antibodies determined by flow cytometry using a DxP6 flow cytometer (Cytek).

[2] = target: T2, ALK1-Fc (R&D Systems catalog number 370-AL-100) (human, UniProt P37023 22-118); assay: bio-layer interferometry (Octet): ALK1-Fc captured on anti-human Fc tips, antibody in solution at 10 ug/mL
T2 construct: extracellular domain; Bought; also called recombinant ALK1-Fc; paralog ALK1; not shown: Fc part (loaded on anti-human Fc tips)
Description: ALK2-Fc (R&D Systems), ALK2-Fc (Sino Biological catalog number 10227-H03H), and ALK1-Fc (R&D Systems catalog number 370-AL-100) were diluted to 10 μg/mL in 1× kinetics buffer (ForteBio) and loaded onto anti-human Fc tips (ForteBio). After baseline equilibration in kinetics buffer (ForteBio), the sensors were applied to solutions of antibodies JAB0399, JAB0481, and BB5.1 (isotype control mAb) diluted to 10 μg/ml in kinetics buffer. The sensors were then applied to antibody-free kinetics buffer to measure antibody dissociation.

[3] = target: T3, recombinant human ALK2 extracellular domain (Creative Biomart catalog number ACVR1-01H) (human, UniProt Q04771 21-123); assay: SPR (Biacore), antibody captured, ALK2 ECD as analyte
T3 construct: also called ALK2 ECD; ACVR1 ECD
T3 sequence: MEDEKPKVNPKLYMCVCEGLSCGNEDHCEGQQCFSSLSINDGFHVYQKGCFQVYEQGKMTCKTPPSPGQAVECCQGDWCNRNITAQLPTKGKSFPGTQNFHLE

[4] = target: T3, recombinant human ALK2 extracellular …; assay: SPR (Biacore), JAB0481 captured at high density on anti-mouse IgG chip, ALK2 ECD as analyte, 1:1 Langmuir fit
Description: (§1) Anti-mouse IgG was immobilized on carboxymethylated dextran BiaCore sensor chips (CMS, GE Biosciences) using a Mouse Antibody Capture Kit (GE Lifesciences product number BR100838). Two sensors were prepared; one for a “low” density of JAB0481 captured on the sensor and one with a “high” density of JAB0481 captured on the sensor. JAB0481 was diluted to 0.05 mg/ml in HEPES EDTA surfactant buffer (HBS-EP), pH 7.4 and injected onto the mouse antibody capture sensors. The volume of JAB0481 solution injected for the “low” density condition was […], and the volume that was used for the “high” density condition was 30 μL.
(§2) The ALK2 ECD was diluted in HBS-EP buffer and injected over the JAB0481 captured sensors at concentrations ranging from 2000 nM to 250 nM followed by a 300 second association period. This was followed by the injection of HBS-EP buffer and a 500 second dissociation period. Relative response deflection was plotted against time and the data were fitted to curves according to the Langmuir 1:1 binding kinetic model.
(§3) The sensorgrams for the binding of the ALK2 ECD to JAB0481 at low surface density is provided in FIG. 9, while the sensorgrams for the binding of the ALK2 ECD to JAB0481 at high surface density is provided in FIG. 10. Table 2 provides the association and dissociation rates, the dissociation constant, and Chi squared values calculated from the Biacore binding data.

[5] = target: T3, recombinant human ALK2 extracellular …; assay: SPR (Biacore), JAB0481 captured at low density on anti-mouse IgG chip, ALK2 ECD as analyte, 1:1 Langmuir fit
Description: as §1, §2, §3

[6] = target: T1, mouse ALK2 expressed on the cell …; assay: cell-based or functional assay

T2 sequence (P37023 22-118): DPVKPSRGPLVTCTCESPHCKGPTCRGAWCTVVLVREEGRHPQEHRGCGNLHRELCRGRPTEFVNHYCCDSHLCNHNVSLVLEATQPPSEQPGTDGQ

B1: JAB0481 (antibody, mouse IgG1, kappa)
heavy: EVQLQQSGAELVRPGASVRLSCTASGFNIKDSLMHWVKQRPEQGLEWIGWIDPEDGETKYAPNFQDKATITAVTSSNTAYLQLSSLTSEDSAIYYCARYTSDYYTMDYWGQGTSVTVSSAKTTPPSVYPLAPGSAAQTNSMVTLGCLVKGYFPEPVTVTWNSGSLSSGVHTFPAVLQSDLYTLSSSVTVPSSTWPSQTVTCNVAHPASSTKVDKKIVPRDCGCKPCICTVPEVSSVFIFPPKPKDVLTITLTPKVTCVVVDISKDDPEVQFSWFVDDVEVHTAQTKPREEQINSTFRSVSELPIMHQDWLNGKEFKCRVNSAAFPAPIEKTISKTKGRPKAPQVYTIPPPKEQMAKDKVSLTCMITNFFPEDITVEWQWNGQPAENYKNTQPIMDTDGSYFVYSKLNVQKSNWEAGNTFTCSVLHEGLHNHHTEKSLSHSPGK
light: DIQMTQSPASQSASLGESVTFTCLASQTIGTWLAWYQQKPGKSPQLLIYAATSLADGVPSRFSGSGSGTKFSFKISSLQAEDFASYYCQQLYSTPWTFGGGTKLEIKRADAAPTVSIFPPSSEQLTSGGASVVCFLNNFYPKDINVKWKIDGSERQNGVLNSWTDQDSKDSTYSMSSTLTLTKDEYERHNSYTCEATHKTSTSPIVKSFNRNEC
notes: Murine IgG1/kappa; also called antibody JAB0481; parent mAb JAB0481
In the case of B1, the binding result [1] is reported as “binds”, the binding result [2] is reported as “no binding (tested: 10 ug/mL)” and the Kd [3] is reported as 132 nM. The koff [3] was 0.00516 s⁻¹, the kon [3] was 39100 M⁻¹ s⁻¹ and the Kd [4] was 72.7 nM. It also gave a koff [4] of 0.00467 s⁻¹, a kon [4] of 64200 M⁻¹ s⁻¹ and a Kd [5] of 155 nM. It also gave a koff [5] of 0.00833 s⁻¹ and a kon [5] of 53600 M⁻¹ s⁻¹.

B2: JAB0399 (antibody, mouse IgG1, kappa)
heavy: B1 heavy with S134F
light: B1 light
notes: Murine IgG1/kappa mAb from phage library; also called antibody JAB0399; mAb JAB0399
B2: no binding (tested: 10 ug/mL) [2].

B3: JAB0505 (antibody, mouse IgG1, kappa, V domains shown)
VH: EVQLQQSGAELVRPGASVRLSCTASGFNIKDSLMHWVKQRPEQGLEWIGWIDPEDGETRYAPNFQDKATITAVTSSNTAYLQLSSLTSEDSAIYYCARYTSRYYTMEYWGQGTSVTVSS
VL: DIQMTQSPASQSASLGESVTFTCLASQTIGTWLAWYQQKPGKSPQLLIYAATSLADGVPSRFSGSGSGTKFSFKISSLQAEDFASYYCQQLYWTPWTFGGGTKLEIKR
notes: also called antibody JAB0505
For B3, the Kd [3] was 20.8 nM, the koff [3] was 0.000839 s⁻¹ and the kon [3] was 40300 M⁻¹ s⁻¹. For the same binder, the “IC50, BRE-luciferase reporter assay in C2C12 cells stimulated with BMP9” value [6] was 0.139 nM.

B4: JAB0501 (antibody, mouse IgG1, kappa, V domains shown)
VH: B3 VH with R59K, D66S, R102P, E107D
VL: B3 VL with L91V, W93S
Binder B4 has a Kd [3] of 24.5 nM, a koff [3] of 0.000929 s⁻¹ and a kon [3] of 37900 M⁻¹ s⁻¹. For the same binder, the “IC50, BRE-luciferase reporter assay in C2C12 cells stimulated with BMP9” value [6] was 0.204 nM.
